The source of these data is patent publication US20180194862A1 (AbbVie / Abbott, published 2018).

Experiment [1] has as its target T1, human 4-1BB (human, UniProt Q07011 24-186).
T1 construct: SPR (Biacore) analyte; also called hu4-1BB
The experiment is described as follows: SPR.

The target in experiment [2] is T2, mouse 4-1BB (mouse, UniProt P20334 24-187).
T2 construct: also called mu4-1BB; murine 4-1BB
T2 sequence (looked up): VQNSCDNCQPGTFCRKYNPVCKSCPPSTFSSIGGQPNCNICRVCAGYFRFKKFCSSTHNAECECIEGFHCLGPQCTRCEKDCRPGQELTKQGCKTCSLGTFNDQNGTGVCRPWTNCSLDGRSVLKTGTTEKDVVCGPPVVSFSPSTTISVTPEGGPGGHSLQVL
The experiment is described as follows: SPR.

For experiment [3], the target named is human CD40 on cells (HEK293 stable transfectants, HEK-Blue CD40 cells, human B cells, monocytic cells, … (human, UniProt P25942 21-277)). The experiment is described as follows: cell-based or functional assay.
Sequence of human CD40 on cells (HEK293 stable transfectants, HEK-Blue CD40 cells, human B cells, monocytic cells, … (P25942 21-277 limits assumed): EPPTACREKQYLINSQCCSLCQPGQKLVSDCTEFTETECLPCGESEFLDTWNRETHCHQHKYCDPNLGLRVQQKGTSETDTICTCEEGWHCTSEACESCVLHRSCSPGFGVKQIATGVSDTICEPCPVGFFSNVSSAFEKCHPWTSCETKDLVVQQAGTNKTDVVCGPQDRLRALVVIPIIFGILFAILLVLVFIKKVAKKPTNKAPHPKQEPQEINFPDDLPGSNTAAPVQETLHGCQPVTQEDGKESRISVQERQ
Experiment [4] has as its target T3, mouse 4-1BB on HEK293 cells (mouse, UniProt P20334 24-256).
T3 construct: whole, on cells
T3 sequence (looked up): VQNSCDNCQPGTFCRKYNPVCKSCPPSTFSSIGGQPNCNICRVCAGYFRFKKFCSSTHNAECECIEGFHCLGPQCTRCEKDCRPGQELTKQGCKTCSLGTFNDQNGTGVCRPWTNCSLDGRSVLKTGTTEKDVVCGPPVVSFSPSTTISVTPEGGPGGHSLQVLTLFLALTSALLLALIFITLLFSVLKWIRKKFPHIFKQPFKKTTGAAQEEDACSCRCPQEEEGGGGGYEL
The experiment is described as follows: FACS, HEK293 mouse 4-1BB. How it is done:
To determine species specificity and relative binding affinities of the test antibodies, cell lines were generated to exogenously express 4-1BB on the membrane. HEK293 cells were transfected with a plasmid expressing the human, cynomolgus, or mouse 4-1BB proteins. Stable, high expressing populations were sorted on the MoFlo sorter (Beckman) and maintained in DMEM, 10% fetal bovine serum, containing 500 μg/mL G418. For the assay, cells were dissociated with trypsin, resuspended at 5×10⁶ cells/mL and transferred to the 500 μL polypropylene plate (Nunc) at 50 μL/well (250,000 cells/well). […] Cells were washed twice with 250 μL/PBS (Hyclone) per well. PE-labelled detection antibodies were added at 1:250 dilution of stock, 50 μL/well, and incubated for 20 minutes at room temperature. The following detection antibodies were used: Goat anti-Rat IgG-PE (Southern Biotech), Goat anti-Mouse IgG-PE (Southern Biotech) or Goat anti-Human IgG-PE (Southern Biotech). Cells were washed once and fixed with PBS containing 1% Formaldehyde. Plate was analyzed for fluorescence on the FACSCalibur (Becton Dickinson).

In experiment [5] the target is T1, human 4-1BB. The experiment is described as follows: SPR (Biacore).

B1: hu107-1 (antibody, V domains shown)
VH: EVQLVQSGAEVKKPGSSVKVSCKASDYTFNDYWVSWVRQAPGQGLEWIGEIYPNSGATNFNGKFRGRATLTVDNSASTAYMELSSLRSEDTAVYYCTREYTRDWFAYWGQGTLVTVSS
VL: DVVLTQSPLSLPVTLGQPASISCRSSQSLLDSDGNTYLYWFQQRPGQSPRRLIYLVSNLGSGVPDRFSGSGSGTDFTLKISRVEAEDVGVYYCMQPTHAPYTFGQGTKLEIK
notes: human IgG1 constant regions with L234A and L235A
Consider B1, for which, in experiment [1], the Kd was determined as 0.16 nM, the koff stood at 6.5e-05 s⁻¹ and the kon amounted to 410000 M⁻¹ s⁻¹. For the same molecule, in experiment [2], binding was put at a Kd of 5.2 nM, the koff turned out to be 0.0013 s⁻¹ and the kon was 240000 M⁻¹ s⁻¹.

B2: CF4 (bispecific antibody, human IgG1, lambda)
heavy: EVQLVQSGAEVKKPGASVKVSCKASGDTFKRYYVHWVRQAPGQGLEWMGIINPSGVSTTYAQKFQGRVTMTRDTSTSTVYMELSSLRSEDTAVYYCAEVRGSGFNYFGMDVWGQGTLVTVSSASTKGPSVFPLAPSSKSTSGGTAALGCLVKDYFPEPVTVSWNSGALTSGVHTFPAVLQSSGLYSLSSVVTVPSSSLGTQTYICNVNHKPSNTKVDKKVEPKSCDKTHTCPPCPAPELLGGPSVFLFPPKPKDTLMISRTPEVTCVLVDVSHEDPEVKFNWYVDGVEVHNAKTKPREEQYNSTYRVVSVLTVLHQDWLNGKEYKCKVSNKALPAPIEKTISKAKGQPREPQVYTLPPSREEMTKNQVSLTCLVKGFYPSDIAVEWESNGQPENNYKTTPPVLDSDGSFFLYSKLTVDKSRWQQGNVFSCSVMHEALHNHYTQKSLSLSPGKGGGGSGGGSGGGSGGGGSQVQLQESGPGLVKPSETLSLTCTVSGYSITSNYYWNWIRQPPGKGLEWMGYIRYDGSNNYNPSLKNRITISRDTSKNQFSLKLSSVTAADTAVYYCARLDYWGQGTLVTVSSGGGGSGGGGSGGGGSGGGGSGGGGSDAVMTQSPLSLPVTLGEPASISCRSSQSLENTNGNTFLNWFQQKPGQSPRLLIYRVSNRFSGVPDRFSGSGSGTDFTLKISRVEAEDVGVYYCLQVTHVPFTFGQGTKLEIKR
light: SYELTQPPSVSVSPGQTASITCSGDKLGDKYASWYQQKPGQSPVLVIYQDNRRPSGIPERFSGSNSGNTATLTISGTQAMDEADYYCQAWDSDTYVFGTGTKVTVLGQPKAAPSVTLFPPSSEELQANKATLVCLISDFYPGAVTVAWKADSSPVKAGVETTTPSKQSNNKYAASSYLSLTPEQWKSHRSYSCQVTHEGSTVEKTVAPTECS
Turning to B2, the “Max. IL-12p70, dendritic cells with cell-surface mesothelin” value (from here on “Max. IL-12p70, dendritic cells”) in experiment [3] amounted to 50 pg/mL.

B3: CF5 (bispecific antibody, human IgG1, lambda)
heavy: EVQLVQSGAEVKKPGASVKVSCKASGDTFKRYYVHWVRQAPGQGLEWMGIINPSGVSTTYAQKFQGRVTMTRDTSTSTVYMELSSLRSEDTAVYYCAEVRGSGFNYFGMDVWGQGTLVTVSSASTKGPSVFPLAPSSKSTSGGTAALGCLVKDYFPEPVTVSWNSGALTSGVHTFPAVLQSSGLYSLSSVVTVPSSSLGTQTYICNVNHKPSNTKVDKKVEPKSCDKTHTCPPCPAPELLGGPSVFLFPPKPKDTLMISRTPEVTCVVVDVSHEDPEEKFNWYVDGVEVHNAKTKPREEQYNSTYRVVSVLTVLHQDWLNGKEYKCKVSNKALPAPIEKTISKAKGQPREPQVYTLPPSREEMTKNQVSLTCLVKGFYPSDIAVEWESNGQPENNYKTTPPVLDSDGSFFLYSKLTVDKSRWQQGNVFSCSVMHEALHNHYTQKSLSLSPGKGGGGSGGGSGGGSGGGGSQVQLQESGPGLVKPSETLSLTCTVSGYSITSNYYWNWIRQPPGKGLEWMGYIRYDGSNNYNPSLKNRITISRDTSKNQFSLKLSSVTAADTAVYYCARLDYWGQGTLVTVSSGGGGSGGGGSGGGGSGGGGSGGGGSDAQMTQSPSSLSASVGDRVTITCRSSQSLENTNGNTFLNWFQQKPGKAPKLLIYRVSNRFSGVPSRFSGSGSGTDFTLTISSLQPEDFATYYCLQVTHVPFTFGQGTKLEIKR
light: SYELTQPPSVSVSPGQTASITCSGDKLGDKYASWYQQKPGQSPVLVIYQDNRRPSGIPERFSGSNSGNTATLTISGTQAMDEADYYCQAWDSDTYVFGTGTKVTVLGQPKAAPSVTLFPPSSEELQANKATLVCLISDFYPGAVTVAWKADSSPVKAGVETTTPSKQSNNKYAASSYLSLTPEQWKSHRSYSCQVTHEGSTVEKTVAPTECS
For the molecule B3, the “Max. IL-12p70, dendritic cells” value in experiment [3] was determined as 60 pg/mL.

B4: CF9 (bispecific antibody, human IgG1, lambda)
heavy: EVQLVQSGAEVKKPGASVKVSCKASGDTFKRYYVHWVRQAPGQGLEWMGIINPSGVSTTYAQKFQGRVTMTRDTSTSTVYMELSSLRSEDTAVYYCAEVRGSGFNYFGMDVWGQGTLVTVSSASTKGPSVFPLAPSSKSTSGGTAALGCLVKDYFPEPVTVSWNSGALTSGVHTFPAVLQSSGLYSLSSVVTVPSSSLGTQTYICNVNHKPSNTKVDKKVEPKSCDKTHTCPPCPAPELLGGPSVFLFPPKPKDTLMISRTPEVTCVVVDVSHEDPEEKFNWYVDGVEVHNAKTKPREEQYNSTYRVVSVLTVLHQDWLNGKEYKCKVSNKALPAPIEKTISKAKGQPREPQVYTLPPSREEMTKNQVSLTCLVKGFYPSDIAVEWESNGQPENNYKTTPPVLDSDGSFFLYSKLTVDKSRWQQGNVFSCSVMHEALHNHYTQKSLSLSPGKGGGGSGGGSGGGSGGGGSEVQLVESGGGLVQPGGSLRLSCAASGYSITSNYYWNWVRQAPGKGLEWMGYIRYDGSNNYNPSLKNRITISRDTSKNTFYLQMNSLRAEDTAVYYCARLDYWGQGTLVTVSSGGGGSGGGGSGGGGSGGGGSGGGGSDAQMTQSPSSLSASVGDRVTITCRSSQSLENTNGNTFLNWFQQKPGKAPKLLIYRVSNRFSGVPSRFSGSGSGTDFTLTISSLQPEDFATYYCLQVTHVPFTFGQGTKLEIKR
light: SYELTQPPSVSVSPGQTASITCSGDKLGDKYASWYQQKPGQSPVLVIYQDNRRPSGIPERFSGSNSGNTATLTISGTQAMDEADYYCQAWDSDTYVFGTGTKVTVLGQPKAAPSVTLFPPSSEELQANKATLVCLISDFYPGAVTVAWKADSSPVKAGVETTTPSKQSNNKYAASSYLSLTPEQWKSHRSYSCQVTHEGSTVEKTVAPTECS
For B4, in experiment [3], the “Max. IL-12p70, dendritic cells” value turned out to be 120 pg/mL.

B5: hu106-1 mIgG1 (antibody, V domains shown)
VH: EVQLVQSGAEVKKPGSSVKVSCKASGYTFTSYYIYWVRQAPGQGLEWIGNIWPGNGGTFYGEKFMGRATFTADTSTSTAYMELSSLRSEDTAVYYCARRPDYSGDDYFDYWGQGTLVTVSS
VL: NVMLTQPHSVSESPGKTVTISCKLNSGNIGSYYVHWYQQRPGSSPTTMIYRDDKRPDGVPDRFSGSIDSSSNSASLTISGLKTEDEADYYCHSYDSTITPVFGGGTKLTVL
notes: also called hu106-1 with the muIgG1 constant region
Turning to B5, in experiment [4], a half-maximal response (EC50) required 0.69 nM.

B6: hu106-1 T252M mIgG1 (antibody, V domains shown)
VH: EVQLVQSGAEVKKPGSSVKVSCKASGYTFTSYYIYWVRQAPGQGLEWIGNIWPGNGGTFYGEKFMGRATFTADTSTSTAYMELSSLRSEDTAVYYCARRPDYSGDDYFDYWGQGTLVTVSS
VL: NVMLTQPHSVSESPGKTVTISCKLNSGNIGSYYVHWYQQRPGSSPTTMIYRDDKRPDGVPDRFSGSIDSSSNSASLTISGLKTEDEADYYCHSYDSTITPVFGGGTKLTVL
notes: also called hu106-1 mIgG1 T252M
On to B6, for which it took 0.95 nM to reach a half-maximal effect in experiment [4] (EC50).

B7: Hu106mPSMA-3 (bispecific antibody)
chain: EVQLVQSGAEVKKPGSSVKVSCKASGYTFTSYYIYWVRQAPGQGLEWIGNIWPGNGGTFYGEKFMGRATFTADTSTSTAYMELSSLRSEDTAVYYCARRPDYSGDDYFDYWGQGTLVTVSSGGGGSGGGGSGGGGSGGGGSGGGGSGGGGSNVMLTQPHSVSESPGKTVTISCKLNSGNIGSYYVHWYQQRPGSSPTTMIYRDDKRPDGVPDRFSGSIDSSSNSASLTISGLKTEDEADYYCHSYDSTITPVFGGGTKLTVLGQVPRDSGCKPCICTVPEVSSVFIFPPKPKDVLMITLTPKVTCVVVDISKDDPEVQFSWFVDDVEVHTAQTQPREEQFNSTFRSVSELPIMHQDWLNGKEFKCRVNSAAFPAPIEKTISKTKGRPKAPQVYTIPPPKEQMAKDKVSLTCMITDFFPEDITVEWQWNGQPAENYKNTQPIMDTDGSYFVYSKLNVQKSNWEAGNTFTCSVLHEGLHNHHTEKSLSHSPGKGGGGSGGGSGGGSGGGGSEVKLVESEGGLVQPGSSMKLSCTASGFTFSDYYMAWVRQVPEKGLEWVANINYDGTTTYYLDSLKSRFIISRDNSKNILYLQMSSLKSEDTATYYCARVLDGYYGYFDYWGQGTTLSVSSGGGGSGGGGSGGGGSGGGGSGGGGSGGGGSQIVLTQSPAIMSASPGEKVTISCSASSSVSYMYWYQQKPGSSPKPWIYRTYNLASGVPARFSGSGSGTSYSLTISSMEAEDAATYYCQQSHTYPPTFGGGTKLEIKR
notes: contains T252M
In experiment [4], B7 showed an EC50 of 1.1 nM.

B8: Hu106mPSMA-4 (bispecific antibody)
chain: EVQLVQSGAEVKKPGSSVKVSCKASGYTFTSYYIYWVRQAPGQGLEWIGNIWPGNGGTFYGEKFMGRATFTADTSTSTAYMELSSLRSEDTAVYYCARRPDYSGDDYFDYWGQGTLVTVSSGGGGSGGGGSGGGGSGGGGSGGGGSGGGGSNVMLTQPHSVSESPGKTVTISCKLNSGNIGSYYVHWYQQRPGSSPTTMIYRDDKRPDGVPDRFSGSIDSSSNSASLTISGLKTEDEADYYCHSYDSTITPVFGGGTKLTVLGQVPRDSGCKPCICTVPEVSSVFIFPPKPKDVLMITLTPKVTCVVVDISKDDPEVQFSWFVDDVEVHTAQTQPREEQFASTFRSVSELPIMHQDWLNGKEFKCRVNSAAFPAPIEKTISKTKGRPKAPQVYTIPPPKEQMAKDKVSLTCMITDFFPEDITVEWQWNGQPAENYKNTQPIMDTDGSYFVYSKLNVQKSNWEAGNTFTCSVLHEGLHNHHTEKSLSHSPGKGGGGSGGGSGGGSGGGGSEVKLVESEGGLVQPGSSMKLSCTASGFTFSDYYMAWVRQVPEKGLEWVANINYDGTTTYYLDSLKSRFIISRDNSKNILYLQMSSLKSEDTATYYCARVLDGYYGYFDYWGQGTTLSVSSGGGGSGGGGSGGGGSGGGGSGGGGSGGGGSQIVLTQSPAIMSASPGEKVTISCSASSSVSYMYWYQQKPGSSPKPWIYRTYNLASGVPARFSGSGSGTSYSLTISSMEAEDAATYYCQQSHTYPPTFGGGTKLEIKR
notes: contains T252M and N297A
Take B8: the EC50 in experiment [4] stood at 1 nM.

B9: TABBY10-mIgG1 (antibody, V domains shown)
VH: QIQLVQSGPELKKPGETVKISCKASGYTFTTYGMSWVKQAPGKGLKWMGWINTYSGVPTYADDFKGRFAFSLETSASTAYLQINNLKNEDTATYFCARGNDGNYYGWFAHWGQGTLVTVSA
VL: DIQMTQSPSSLSASLGGKVTITCKASQDIHNYISWYQHKPGKGPRLVIHYTSTLQPGIPSRFSGSGSGRDYSFSISNLEPEDIATYYCLQYDNLYTFGGGTKLEIK
notes: mouse IgG1
For the molecule B9, the Kd in experiment [5] came out at 3.1 nM.

B10: TABBY1.1-mIgG1 (antibody, V domains shown)
VH: EVQLVESGGDLVKPGGSQKLSCAASGFTFSSYGMSWVRQTPDRRLEWVAAIISGGSYTYYPDSVKGRFTISRDNAKNTLYLQMNSLKSEDTAMYYCARHGGYDGNYDYYAMDYWGQGTSVTVSS
VL: DVLMTQTPLSLPVSLGDQASISCRSSQSIVDSDGITYLEWYLQKPGQSPKLLIYKVSNRFSGVPDRFSGSGSGTDFTLRISRVEAEDLGLYYCFQVSHVPWTFGGGTKLEIK
notes: mouse IgG1
As to B10, in experiment [5], the Kd worked out at 2 nM.

B11: TABBY3-mIgG2b (antibody, V domains shown)
VH: GVQLVESGGGLVQPGGSRKLSCAASGFTFSSFGMHWFRQAPEKGLEWVAYISSGSSTIYYADTLKGRFTISRDNPKNTLFLQMTSLRSEDTAMYYCARDWVDYWGQGTTLTVSS
VL: DIVITQDELSNPVTSGESASISCRSSKSLLYKDGKTYLNWFLQRPGQSPQLLIYLMSTRASGVSDRFTGSGSGTDFTLEISRVKAEDVGVYYCQQPVEYPYTFGGGTKLEIK
notes: mouse IgG2b
In experiment [5], B11 displayed a dissociation constant (Kd) of 6.6 nM.

B12: TABBY5-mIgG2b (antibody, V domains shown)
VH: EVQLQQSGAELVRPGASVKLSCTASGFNIKDYYMHWVKQRPEQGLEWIGRIDPEDGDTEYVPKFQGKATMTADTSSNTAYLQLSSLTSEDTAVYYCTPYSNYVYWYFDVWGTGTTVTVSS
VL: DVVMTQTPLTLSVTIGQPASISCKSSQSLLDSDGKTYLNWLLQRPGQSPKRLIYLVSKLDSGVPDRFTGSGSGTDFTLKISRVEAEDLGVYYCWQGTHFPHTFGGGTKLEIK
notes: mouse IgG2b
In turn, B12 had a Kd in experiment [5] of 0.3 nM.

B13: TABBY6-mIgG1 (antibody, V domains shown)
VH: EVQLQQSGAELVRPGASVKLSCTASGFNIKDYYMHWVKQRPEQGLEWIGRIDPEDGDTEYAPKFQGKATMTADTSSNTAYLQLSTLTSEDTAVYYCTPYSNYVYWYFDVWGTGTTVTVSS
VL: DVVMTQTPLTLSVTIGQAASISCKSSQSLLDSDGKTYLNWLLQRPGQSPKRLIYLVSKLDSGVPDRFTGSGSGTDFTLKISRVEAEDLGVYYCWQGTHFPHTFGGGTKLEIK
notes: mouse IgG1
In experiment [5], B13 returned a Kd of 1.9 nM.
